The values below come from paper PMC8456781, “Myosin-X and talin modulate integrin activity at filopodia tips” (Cell Reports, 2021).

T1: His-tagged MYO10^FERM (recombinant MYO10 MyTH4/FERM domain) (UniProt Q9HD67 1504-2058, RED-tris-NTA dye on the His tag (Monolith His-Tag Labeling Kit))
T1 construct: Vector pET151; also called recombinant MYO10^FERM; MYO10 FERM domain; source: E. coli BL-21(DE3), purified (Protino Ni-TED column)
T1 sequence (looked up): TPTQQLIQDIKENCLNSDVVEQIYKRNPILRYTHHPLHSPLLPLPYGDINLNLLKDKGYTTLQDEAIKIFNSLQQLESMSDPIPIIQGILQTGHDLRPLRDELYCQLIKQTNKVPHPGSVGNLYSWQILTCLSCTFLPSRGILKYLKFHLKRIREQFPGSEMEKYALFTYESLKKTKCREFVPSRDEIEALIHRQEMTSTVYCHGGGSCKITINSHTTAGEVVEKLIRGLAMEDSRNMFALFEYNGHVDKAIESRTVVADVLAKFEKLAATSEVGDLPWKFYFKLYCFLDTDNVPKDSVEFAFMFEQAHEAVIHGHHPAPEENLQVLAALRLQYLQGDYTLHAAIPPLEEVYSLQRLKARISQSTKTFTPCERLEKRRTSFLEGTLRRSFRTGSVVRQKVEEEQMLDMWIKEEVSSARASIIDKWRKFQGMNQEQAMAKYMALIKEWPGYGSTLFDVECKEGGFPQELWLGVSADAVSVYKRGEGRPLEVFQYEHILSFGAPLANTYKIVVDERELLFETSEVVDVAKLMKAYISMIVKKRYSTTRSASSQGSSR

T2: ITGA5 tail peptide (Homo sapiens)
T2 chain: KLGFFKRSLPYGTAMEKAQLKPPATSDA

B1: wild-type β1-integrin tail peptide (peptide)
peptide: KLLMIIHDRREFAKFEKEKMNAKWDTGENPIYKSAVTTVVNPKYEGK
modifications: also: biotinylated, position not given here
notes: Integrin beta-1 (ITGB1) cytoplasmic tail; also called β-tail peptide; integrin β tail; source: synthetic peptide (custom, LifeTein)
B2: His-TLN1^FERM (recombinant talin-FERM domain) (domain or fragment)
chain: RPLKIRMLDGTVKTIMVDDSKTVTDMLMTICARIGITNHDEYSLVRELMEEKKDEGTGTLRKDKTLLRDEKKMEKLKQKLHTDDELNWLDHGRTLREQGVEEHETLLLRRKFFYSDQNVDSRDPVQLNLLYVQARDDILNGSHPVSFDKACEFAGFQCQIQFGPHNEQKHKAGFLDLKDFLPKEYVKQKGERKIFQAHKNCGQMSEIEAKVRYVKLARSLKTYGVSFFLVKEKMKGKNKLVPRLLGITKECVMRVDEKTKEVIQEWSLTNIKRWAASPKSFTLDFGDYQDGYYSVQTTEGEQIAQLIAGYIDIILKKK
modifications: RED-tris-NTA dye on the His tag (Monolith His-Tag Labeling Kit)
B3: conserved region of the α2-integrin tail, peptide (peptide)
peptide: WKLGFFKRKYEKM
modifications: also: biotinylated, position not given here
notes: Integrin alpha-2 (ITGA2), conserved membrane-proximal region of the cytoplasmic tail; also called ITGA2^WT; ITGA2; source: synthetic peptide (custom, LifeTein)
B4: His-tagged MYO10^FERM (recombinant MYO10 MyTH4/FERM domain) (domain or fragment)
chain: T1 sequence (looked up)
modifications: RED-tris-NTA dye on the His tag (Monolith His-Tag Labeling Kit)

Assay [1] has as its target T1, His-tagged MYO10^FERM (recombinant …). Put plainly: MST; His-tagged recombinant FERM domains labelled with RED-tris-NTA at 20 nM, integrin tail peptides at increasing concentration; three independent experiments pooled. The note with it: both partners purified.
Assay [2] addresses T3, His-TLN1^FERM (recombinant talin-FERM domain) (UniProt P26039 86-403, RED-tris-NTA dye on the His tag (Monolith His-Tag Labeling Kit)).
T3 construct: Talin-1 (TLN1) FERM domain; source: E. coli BL-21(DE3), purified (Protino Ni-TED column)
The assay is described as above. The note with it: both partners purified.

Assay [3] concerns the target T2, ITGA5 tail peptide. Put plainly: MST.
Assay [4] concerns the target B4. Briefly: MST.

Where no end group is shown, it is not given here.

For B1, the Kd (commonly the concentration at which binding is half-saturated) in assay [1] came to 25.1 µM; in assay [2], 4.7 µM.

The molecule B2 showed a Kd in assay [3] of 557 µM.

Consider B3, for which the dissociation constant (Kd) in assay [4] was 15.8 µM. Also, in assay [1], the binding result is on record as “binds”.

Turning to B4, in assay [3], the affinity, expressed as Kd, was 18.3 µM.
